{"source": "patent US20240262899A1", "key": {"[1]": {"molecular_target": "citrullinated histone H3 (CitH3) peptide (human)", "assay": "sandwich ELISA, Ab coated 1 ug/mL, CitH3 at 1000 pg/mL"}, "[2]": {"molecular_target": "citrullinated histone H3 (CitH3) peptide (human)", "assay": "sandwich ELISA, Ab coated 1 ug/mL, CitH3 at 20000 pg/mL"}, "[3]": {"molecular_target": "citrullinated histone H3 (CitH3) peptide (human)", "assay": "sandwich ELISA, Ab coated 1 ug/mL, CitH3 at 0 pg/mL (blank)"}, "[4]": {"molecular_target": "citrullinated histone H3 (CitH3) peptide (human)", "assay": "sandwich ELISA, Ab coated 1 ug/mL, CitH3 at 50 pg/mL"}}, "data": [{"binder": "Y1128-VH1/VL1 (antibody, V domains shown) VH: EVQLVQSGAEVKKPGATVKISCKASGFNIKDYYMHWMQQRPGKGLEWIGWIDPENGNTIYDPKFQGRVTITSDTSTDTAYLELSSLRSEDTAVYYCAPFGNYVWFAYWGQGTLVTVSS VL: DVVMTQSPLSLPVTLGQPASISCRSSQSIVHSNGITYLEWFQQRPGQSPRLLIYKVSNRFSGVPDRFSGSGSGTDFTLKISRVEAEDVGVYYCFQGSHVPFTFGQGTKLEIKR", "values": [{"measurement": "ELISA signal (raw data)", "setting": "[1]", "result": 2910}, {"measurement": "ELISA signal (raw data)", "setting": "[2]", "result": 3700}, {"measurement": "ELISA signal (raw data)", "setting": "[3]", "result": 2780}, {"measurement": "ELISA signal (raw data)", "setting": "[4]", "result": 2950}]}]}
